Test results: a protein production outcome set (Wang et al. 2014)

Test: label from the status in PepcDB records
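Further: failed if final PepcDB status was selected cloned or expressed and not failed if soluble or beyond.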

Sequence | protein production
MTIATSTKPQINWVNTLFFLGLHIGALFAFIPSNFSWAAVGVALLLYWITGGLGITLGFHRLVTHRSFQTPKWLEYFLVLCGTLACQGGPIEWVGTHRIHHLHSDTDPDPHDSNKGFWWSHIGWLIYHSPSHADVPRFTKDIAEDPVYQFLQKYFIFIQIALGLLLLYLGGWSFVVWGVFFRIVWVYHCTWLVNSATHKFGYRTYDAGDRSTNCWWVAVLVFGEGWHNNHHAFQYSARHGLEWWEVDLTWMTVQLLQILGLATNVKLADKKQ | failed
MRFAVLGSGSQGNGTLIASGDTFILVDCGFSLRETERRLALLGVSAAQLSAVLVTHEHADHVHGVGLLSRRYNVPVYLSQGTLRGMRKPVEVAGFLACGQSLHIGSLEVTAARVEHDAYEPLQYVVSDGKRRFGMLTDLGSYDALLLERYQGLDALLIEANHCRDLLARGHYPAFLKQRVGGMQGHLNNHQAARLVHELGWNNLQHLVLAHLSSKNNLPHLARQCFVDTLGCDPDWLQVANQEHGLDWREIALEHHHHHH | not failed
GTVLVSIKSSLPENNFFDDALIDELLQQFASFGEVILIRFVEDKMWVTFLEGSSALNVLSLNGKELLNRTITIALKSP | not failed
MSSSIEIFPDSDILVAAAGKRLVGAIGAAVAARGQALIVLTGGGNGIALLRYLSAQAQQIEWSKVHLFWGDERYVPEDDDERNLKQARRALLNHVDIPSNQVHPMAASDGDFGGDLDAAALAYEQVLAASAAPGDPAPNFDVHLLGMGPEGHINSLFPHSPAVLESTRMVVAVDDSPKPPPRRITLTLPAIQRSREVWLLVSGPGKADAVAAAIGGADPVSVPAAGAVGRQNTLWLLDRDAAAKLPS | not failed
MGQMISEMRHGVRRPVWHDLAERFDEPRECLASFLALEAAEVLAGEKPANLIGIANRTRACGRNLYVLWKQWGAMVLGESGLAVRELSDRGDSLLLLLYRPEALEALLRRPSASAVLARAGYGAATGLDEVLTELSTRIDGDRFPHEIGVFLGYPLKDVAAFMGLVRIPFACQGPWKIFGDPRESLRLAEVFRCCRARMAERLNRCTSALDCLADGSPRPVVGFDEIESHSYGGKAMCIAVIGGMDRLEKHYREEAVRSGVELRMFSQSENNIAVKLKRFDALVIFTNKVSHRVKNEAMAVAKQNGIPVFMHHSCGVCTLRDCLSCLTATVAHVGESDRPDLGRRKNHS | failed
SISTHESQKLREYYRLLNLDEGCSVDDVRESFHKLARQYHPDSGSSDADSATFIKIEEAYRNVLSHAIKRMHAGQDKAEDAAEDEEEGKFKYNTPQHRHYLSFEGVGFGTPSQREKQYRQFRADRATEQVMEYQRQKLQREFFANSITVKDVRQSKQQKITQAIERLVEDLIQESMAKGDFDNLSGKGKPLKKFSGCSYIDPMTHNLNRILIDNGYQPEWILMQKEIKDTIEQLREALLMSRKKLGNPLSPTEQKQWAQVCEQFQEKIRKLNKRINDFNLIVPILTRQKVHFDAQKEIIRVQEMYGAFVEANEVTEENQTDVSQGEESKTPRVKAGFLNWLNLWKSIKI | failed
MVKKGFLTGLLLFGIFFGAGNLIFPPALGVASGQDFWPAILGFCLSGVGLAIITLLLGTLTNGGYKTEMSEKFSPWFSLTFLVILYLTIGPLFAIPRTATVSFEIGVAPIVGHSPIALLCFTACFFAAAYYLAIRPNGILDSVGKILTPVFAFLILSLVVVGAIAYGNLESAKASADYAGKAFGSGVLAGYNTLDALAAVAFCLVATETLKKFGFKTKKEYLSTIWIVGIVTSLAFSILYIGLGFLGNKFPVPADILADPNVNKGAYVLSQASYKLFGNFGRYFLSIMVTLTCFTTTVGLIVSVSEFFDKNFRFGNYKLFATVFTLIGFLIANLGLNAVITFSVPVLTLLYPIVIVIVLIILINKWLPLSKKGMSLTIGLVTLVSFVEVLAGQWQEKTLTQLVGFLPFHTISMGWLVPMLIGIVFSLVLSDKQKGQAFDLEKFEG | failed
IRQRKRAERALNDQLEFMRVLIDGTPNPIYVRDKEGRMLLCNDAYLDTFGVTADAVLGKTIPEANVVGDPALAREMHEFLLTRMAAEREPRFEDRDVTLHGRTRHVYQWTVPYGDSLGELKGIIGGWIDIT | failed
MSVIKLKSKLKYCHYAYDDEGYVIHMLTSNERTFFTNAYIIETKNSIVVVDTLMVNSDAILLRQYMDNINKPLIAVIITHGHPDHYNGTEIITGFKEVPIISTKGIRDCIQDTVDSKEVKWKPYFGQDWPEHKILPNQLVIDSEVVNLDGLDYSFRDLGAAESSSDLFFTLGEKRSVIFVGDVVFNNMHGFMNDGNSAQWLKVLQKLLTEIADVKLLFTGHGDPGDTHQLVQRQIDYISHYRSNLLAIIRGNQLLNDTQKQSFEQLMMANYPEFQLSSFIKAGIDAVSQELIVEQNDKP | failed
MVGGGTVKKDLKKAIQYYVKACELNEMFGCLSLVSNSQINKQKLFQYLSKACELNSGNGCRFLGDFYENGKYVKKDLRKAAQYYSKACGLNDQDGCLILGYKQYAGKGVVKNEKQAVKTFEKACRLGSEDACGILNNY | failed
MKRIQVSPHIYKLESWFLLKMSAWIVKEDEGVYIVDTGMPYMGKRILKEAEKLGKVKGVLLTHGHSDHVGGLKKILDIQDLPVYVHTLDIKHMEGKEPFPGRKKREYLVEPGVAKPLPVDEDGEFRCFGNLVPYHTPGHSPGHVCYYHKKDRVLIGGDLFTSKRGKLQQPIKMFTADMNEAVRSGEIVKKLQPSKVSICHGNDIDNPHTQIDEYLTHYKYERNDQQKIKNEDRTIS | failed
MSRGPLDPRAPLYKAVQIARRRAAEEGDSSWRVVAQAVEELARRVERLYELASRHGLSKPFWLSPRVLEVLRSVEDGDKGGAIERARSLSESLIPAGLAGEYSLATGTAARVLASIIFLASAAYIGVEGIQAPSTPAAVTTLALASFALAALLAASTHYSLYLLAVSTGASLAIATAYRPVVDSYSILMALYSAVLGFAAAAYSSYTRRKFYRMLRMLERGM | failed
MTAPIIITGVGKRIGYALAKHLLAQGHKVIGTYRSHYPSIDELQSLGATLIQCDFYDNAQVQNLIEQLSQYPKFRAIIHNASDWLADNSPEFAAHEVMQRMIQVHVNVPYQMNLALASKLQAGAEGEIGASDIIHITDYVAEKGSAKHIAYAASKAALDNLTLSFAAKLAPEVKVNAIAPAMILFNPSDDEAYRQKTLAKAILPKEAGNHEIIELMEYLLNSRYVTGRSHHVDGGRHLR | not failed
NELEKGNDGSGTVDPVNASTLVNVYSDKSGSEASLLVGDVLVKDSRTLTLNVPAACEKVYMKYNTVSGTEATKEFALSPVSRGVDQSTGFNFETNRLASVTLALPEDAVQPTNETDQGYLFYHNTGVVMFEDGWPIQLDSWYDEDFNDVVFEYDLKVTECHSQQMMETVGGKEELLLTLDVRAVGGIYPTVLGVVLDGLKSEYVDRITASLILKGGQGTMTDLAKEELSTKNIVKVENKNWNWSNDTRKEPRFAILTVDKAQAEGTVITLDGLTSLMDNNQDMFQVTQGKVREGLPMLRAEVRLIGKEGLTGAERDAQLAAFRELILDTNRQNFFIKVNGGKEIHMRGYAPTSAYKAEYEALVAGDTTLDANVYYSNTKGSTWGVKLPVGTRHAYERVPFREAYPDFTKWVDSKGVSNQKWYENFVDEKTIRYW | not failed
MRIFIIKSSTAHTAFDYSIKDIPGTSGRLDLICRSLNAAFQLSHSFRKNVRVYTVLYGPPDPPKTIRFEGAKIKPKTLNPDEVSTAKLIGKILNAGKDIKEPTKEREVLPGIYISRMTFEDVVRKNIKYNLYLLEENGVDIEKVKFPQDNVGFILGDQNGFTEEELNFLEGLVPKITIGPKPYLTSHVIAFVNIYLDRIGIP | failed
MSNDNGVSRRQFMKTSALAAGGLLLACHLPLGRRDAAAATAEAFTPNAFLHIGTDERVTVIVNKSEMGQGVYTSLPMLVAEELCCDWKRVTFRPSPVAPEYNHTQFGPIMVTGGSTSVRSEWSRLSLAGAAAREMLIAAAAQEWRVEPAACRAEKGFVLGPGGRKLSFGTLAPKAASLPVPKEPKLKPGAKTLLGKPLKRLDSPAKIKGTAVFGIDVRAPGMLTALIARPPVFGGTVKGFDAAKAKAVPGVLDVVAVDAGVAVVADGFWPALKGREALAISWDEGDGARVSTDAMREEYARLAATPGAVARKDGDAPAELAKAARRFEAEYEVPYLAHATMEPLNCFVDLQSDSCLIRTGSQFQTGDRNAAARVAGLKPEQVTLETTFLGGGFGRRACPASDFVIEAVQVAKTVGKPVMVIRTREDDMRAGFYRPLWRDRVAACLDGRGYPLAWHHCIVGQSIMIGTPFEAMIRNGIDDTSVEGAADTPYAIPNLQVELHSPRNPVPVLWWRSVGHSHTAFVVESFLDELAHAAGKDPYQYRRALLAKHPRHLKVLETAARKAGWGKPLPKGRGRGIAVHESFGSFIAQVAEVSLSGDGRIRVHRVVCAVDCGRIVNPDTIEAQMESGITFGLSAALHGAITLRNGRVEQGNFDDYPLVRMAEMPTVEVHIVLSGEDPGGIGEPGVPPIAPAVANALFAASGIRVRSLPLTPETVKRAGGRAA | failed
MKISVPTYPFARERYWISVPEMKTSTVNHILHPLVHRNTSDFTEQRFSSVFTGTEFFLSDHVVQGQKILPGVAYLEMAREAAEKAAGDLDGEQRVVSLKDIVWVRPITIESEPKEIHIGLFPEDNGDISFDIYSSSEHKEEALTIHCQGRAVISDEAETSILNLSSIQTECSLDTVTSEQCYAAFRKIGLDYGEGYQGIEKVYVGKDQLLAKISLPAFLKNDKQHFALHPSLMDSAFHATVGFIVSSVNAAGQAQTLSLPFALQEVDIFSPCPEKIWSYIRYSSDSLEHHHHHH | failed
MSVLSIVTVPDKRLSLCSEEVEKVDQSIRKLVDDMFETMHANQGLGLAAVQVGVHKRILVMNVPEEFEDSEDIENVEDKIEGYELYGGPYCIINPKIVDISQEKVKLKEGCLSVPGYFDYIVRPQRIAVQYLDYNGNECIIKAQGWLARCLQHEIDHLNGTVFLKYLSKFKRDFAIEKVKKKERTDLI | not failed
MKLALVNRQVILPESGTESFQCHASTLVRLPCGTLVAAWFAGLREGSEDTAIWLSRYEHNIWTTPQRVAAREGEAHWNPVLFYPSDKLWLFYKVGSDVHVWKTWFITSSDRGFTWSTPAPLVNDDILPRGPVKNKLLLASNGAWIAPGSIESPERWRAFVDRSSDEGKHWSISFVPLEPDNAISGTNVALWDGIKKGRLWECCLENLLRWDGVIQPTLWESSPGHIHMLLRSTRGAIFRSDSIDYGATWSVARATSLPNNNSGIDLVSMQDGTLILALNPVNGNWGKRYPLSLIASQDNGESWLPLLDLESDHGEYSYPAIISEGGIVHITYTWNRKNIVYCRLQTVLEHHHHHH | failed
ELHAELVKRQHLETFLKTQIESELVDVYFQPIIETRTGNVVKFEALARFYHENSEYSTQEMISIIEDLELIAALDDVVCQTALKQWSHLQKIYGENIGLSINRSLNTKLDSLQVLQRSLDLIKASDVNPKLVTIELTETAYFEQDEEHAFALEQIRQEGIQIAIDDFGTGYSSFSYLEEGQFDVLKIDRKFVKNIHEGSTSYNIVKTITDLAHKLNVEVVAEGVESQRELEVLAGIGVDYMQGFLFSQA | failed
MYVTKRLSEYKRNPSELTLLPTEGPNSGVLVIQDEESRPTLKCCFVNSFDWELNGLPFPQNTRVIVKRQIGTALYLDPVAFIPVLHQPPSSNLYYVIRGSGKHTGEACVSAKEGDRASCCFCFTYIPEAVPRPLDPFDINQQFEIHQGRSSTKKFFATSVASDGIPPQFLTRKGWSVIFSAPEVEDYGLIDDAKGIVDAKLRYELPDLDNSVVVGKWYVPFLFVKEGDAKDQMYKSMYYSMTLQQRFEEVFFCENVGNNKRFEVVVDVEVETEVVKLEGERIARETQGVNSDGVVWFNASGNEKIGLGSVVLERMKWEEERFGWLNKGYEQRSSIKRTERFEGGGPYWKSYRCYVLVETFELKRTDGSLVLTYEFKHVDKLKSKWD | failed
MAPKKIGAGKGDSSILAKISNYDIVSQGRRAACDAVYVSKKLLKSTGKAAWIAGTTFLILAVPLILELEQDHRLGEIDFEQASLLGTPPVGAML | failed
MGHHHHHHSHSLDSQKGQLVRGKVCEYSTDGAYIDIGGKAPAFLPKREAALHAVLDLEAHLPKDEELEFLVIRDQNEDGQVTVSLRALALEQAWTRVAELQEG | not failed
